Kd data for one molecule are collected here from US20250333542A1 (Hoffmann-La Roche, published 2025).

The target of experiment [1] is T1, Fc (kih)-IFNGR1 monomer (P1AF7104) (UniProt P15260 18-245).
T1 construct: Used as the soluble analyte in SPR; not shown: Fc (kih) part
T1 sequence (P15260 whole entry, species assumed, looked up): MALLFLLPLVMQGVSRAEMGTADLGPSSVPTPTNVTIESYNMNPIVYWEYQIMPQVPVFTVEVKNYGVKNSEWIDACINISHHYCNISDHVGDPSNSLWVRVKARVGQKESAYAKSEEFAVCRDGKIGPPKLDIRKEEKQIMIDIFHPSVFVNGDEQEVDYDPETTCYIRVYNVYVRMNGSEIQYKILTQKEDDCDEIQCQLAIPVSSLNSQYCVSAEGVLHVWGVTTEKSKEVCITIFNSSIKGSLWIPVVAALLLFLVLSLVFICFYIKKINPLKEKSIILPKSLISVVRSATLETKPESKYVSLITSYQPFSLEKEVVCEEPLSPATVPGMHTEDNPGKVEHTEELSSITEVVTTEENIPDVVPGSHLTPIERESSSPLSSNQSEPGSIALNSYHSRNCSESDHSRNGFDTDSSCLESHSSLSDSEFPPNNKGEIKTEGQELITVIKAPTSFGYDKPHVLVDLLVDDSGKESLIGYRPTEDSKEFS
The experiment in a line: SPR (Biacore 8K, 25 C), biotinylated Fc(kih)-IFNG captured on SA chip, Fc(kih)-IFNGR1 monomer as analyte, 1:1 Langmuir fit. On the procedure:
(§1) The binding behaviour of IFNG variants towards IFNGR1 and IFNGR1/2 was assessed by surface plasmon resonance (SPR). SPR experiments were performed on a Biacore 8K device at 25° C. with HBS-EP as running buffer (0.01 M HEPES pH 7.4, 0.15 M NaCl, 3 mM EDTA, 0.005% Surfactant P20, Biacore, Freiburg/Germany). […] IFNG mutation series compounds were immobilised at a concentration of 25 nM, 80 s contact time and 10 μL/min. Immobilisation levels up to 450 resonance units (RU) were used. Subsequently, decreasing concentrations (800-3.13 nM) of Fc (kih)-IFNGR1 monomer or Fc (kih)-IFNGR1/2 heterodimer were injected as a second analyte with a flow rate of 30 μL/min over 120 seconds and dissociation was monitored for 500 s. Bulk refractive index differences were corrected for by subtracting the response obtained in a reference flow cell, where no protein was immobilised. […]
(§2) To further evaluate analogous properties of wild-type IFNG and our engineered compound with C-terminal KRKRP (SEQ ID NO:1), we determined the binding affinities of IFNG variants towards IFNG receptors by SPR. […] As second analytes, either IFNGR1 monomer (P1AF7104) or IFNGR1/2 heterodimer (P1AF8126) were passed through the flow cell at different concentrations and dissociation constants (KD) were calculated based on observed association and dissociation behaviour.
On the technique in general: SPR reads the build-up and loss of mass on a sensor chip optically.

The target of experiment [2] is T2, Fc (kih)-IFNGR1/2 heterodimer (P1AF8126) (UniProt P15260 18-245; P38484 28-247, limits assumed).
T2 construct: Used as the soluble analyte in SPR; also called Fc (kih)-IFNGR1/R2 heterodimer; IFNGR1/R2; not shown: Fc (kih) chain
T2 sequence (looked up) 1: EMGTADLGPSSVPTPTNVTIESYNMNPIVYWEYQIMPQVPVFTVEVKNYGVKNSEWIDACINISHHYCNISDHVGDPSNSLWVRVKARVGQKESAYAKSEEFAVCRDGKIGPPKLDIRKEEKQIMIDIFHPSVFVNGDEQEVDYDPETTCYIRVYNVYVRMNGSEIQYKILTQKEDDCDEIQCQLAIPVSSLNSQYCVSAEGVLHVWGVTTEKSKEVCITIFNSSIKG
T2 sequence (looked up) 2: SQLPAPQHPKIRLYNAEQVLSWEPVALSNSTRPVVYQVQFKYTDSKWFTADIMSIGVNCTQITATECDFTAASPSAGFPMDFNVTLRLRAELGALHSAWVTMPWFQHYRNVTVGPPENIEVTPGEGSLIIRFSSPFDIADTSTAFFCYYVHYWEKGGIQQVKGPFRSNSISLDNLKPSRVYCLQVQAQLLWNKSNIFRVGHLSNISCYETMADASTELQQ
As to the kind of experiment: SPR (Biacore 8K, 25 C), biotinylated Fc(kih)-IFNG captured on SA chip, Fc(kih)-IFNGR1/2 heterodimer as analyte, 1:1 Langmuir fit; IFNG KRKRP variant, IFNGR1/2 heterodimer as analyte. As to the method:
as §1, §2

B1: Fc (kih)-IFNG KRKRP (P1AG1550) (Fc fusion)
chain: QDPYVKEAENLKKYFNAGHSDVADNGTLFLGILKNWKEESDRKIMQSQIVSFYFKLFKNFKDDQSIQKSVETIKEDMNVKFFNSNKKKRDDFEKLTNYSVTDLNVQRKAIHELIQVMAELSPAAKTGKRKRP
modifications: biotinylated (site not stated)
notes: Produced as a C-terminal Fc (kih)-fusion protein; not shown: Fc (kih) chain (knob: S354C, T366W; hole: Y349C, T366S, L368A, Y410V as printed) and any linker
The Kd is the constant that tells how readily two partners part at equilibrium. Read a low Kd as a tighter complex. As for B1, the figures for the Kd in experiment [1] and in experiment [2] were 154 nM and 54.4 nM, respectively.
